{"source": "paper PMC11535040", "about": "“Requirement of Nek2a and cyclin A2 for Wapl-dependent removal of cohesin from prophase chromatin” (The EMBO Journal, 2024)", "binders": {"B1": {"name": "recombinant human Wapl (natural protein, UniProt Q7Z5K2 1-1190, looked up)", "chain": "MTSRFGKTYSRKGGNGSSKFDEVFSNKRTTLSTKWGETTFMAKLGQKRPNFKPDIQEIPKKPKVEEESTGDPFGFDSDDESLPVSSKNLAQVKCSSYSESSEAAQLEEVTSVLEANSKISHVVVEDTVVSDKCFPLEDTLLGKEKSTNRIVEDDASISSCNKLITSDKVENFHEEHEKNSHHIHKNADDSTKKPNAETTVASEIKETNDTWNSQFGKRPESPSEISPIKGSVRTGLFEWDNDFEDIRSEDCILSLDSDPLLEMKDDDFKNRLENLNEAIEEDIVQSVLRPTNCRTYCRANKTKSSQGASNFDKLMDGTSQALAKANSESSKDGLNQAKKGGVSCGTSFRGTVGRTRDYTVLHPSCLSVCNVTIQDTMERSMDEFTASTPADLGEAGRLRKKADIATSKTTTRFRPSNTKSKKDVKLEFFGFEDHETGGDEGGSGSSNYKIKYFGFDDLSESEDDEDDDCQVERKTSKKRTKTAPSPSLQPPPESNDNSQDSQSGTNNAENLDFTEDLPGVPESVKKPINKQGDKSKENTRKIFSGPKRSPTKAVYNARHWNHPDSEELPGPPVVKPQSVTVRLSSKEPNQKDDGVFKAPAPPSKVIKTVTIPTQPYQDIVTALKCRREDKELYTVVQHVKHFNDVVEFGENQEFTDDIEYLLSGLKSTQPLNTRCLSVISLATKCAMPSFRMHLRAHGMVAMVFKTLDDSQHHQNLSLCTAALMYILSRDRLNMDLDRASLDLMIRLLELEQDASSAKLLNEKDMNKIKEKIRRLCETVHNKHLDLENITTGHLAMETLLSLTSKRAGDWFKEELRLLGGLDHIVDKVKECVDHLSRDEDEEKLVASLWGAERCLRVLESVTVHNPENQSYLIAYKDSQLIVSSAKALQHCEELIQQYNRAEDSICLADSKPLPHQNVTNHVGKAVEDCMRAIIGVLLNLTNDNEWGSTKTGEQDGLIGTALNCVLQVPKYLPQEQRFDIRVLGLGLLINLVEYSARNRHCLVNMETSCSFDSSICSGEGDDSLRIGGQVHAVQALVQLFLERERAAQLAESKTDELIKDAPTTQHDKSGEWQETSGEIQWVSTEKTDGTEEKHKKEEEDEELDLNKALQHAGKHMEDCIVASYTALLLGCLCQESPINVTTVREYLPEGDFSIMTEMLKKFLSFMNLTCAVGTTGQKSISRVIEYLEHC", "notes": "Wapl, human; insert by PCR on human cDNA; Isolated from mitotically arrested cells; also called GFP-SUMOstar-Wapl; source: Hek293T, transiently transfected, taxol-arrested; not shown: GFP, N-terminal, cleaved; SUMOstar, N-terminal, cleaved"}}, "target": "T1, Flag-tagged Pds5b-Ser1177,1182,1209Ala (3A) phosphorylated by Cdk1/2-cyclin A2 (human, UniProt Q9NTI5 1-1447, Ser1177,1182,1209Ala | Ser1177,1182,1209Ala | Ser1177,1182,1209Ala, phosphoserine at 1161 and 1166 (by Cdk1/2-cyclin A2))", "T1 construct": "Pds5b, human; also called Pds5b-3A", "T1 sequence (looked up)": "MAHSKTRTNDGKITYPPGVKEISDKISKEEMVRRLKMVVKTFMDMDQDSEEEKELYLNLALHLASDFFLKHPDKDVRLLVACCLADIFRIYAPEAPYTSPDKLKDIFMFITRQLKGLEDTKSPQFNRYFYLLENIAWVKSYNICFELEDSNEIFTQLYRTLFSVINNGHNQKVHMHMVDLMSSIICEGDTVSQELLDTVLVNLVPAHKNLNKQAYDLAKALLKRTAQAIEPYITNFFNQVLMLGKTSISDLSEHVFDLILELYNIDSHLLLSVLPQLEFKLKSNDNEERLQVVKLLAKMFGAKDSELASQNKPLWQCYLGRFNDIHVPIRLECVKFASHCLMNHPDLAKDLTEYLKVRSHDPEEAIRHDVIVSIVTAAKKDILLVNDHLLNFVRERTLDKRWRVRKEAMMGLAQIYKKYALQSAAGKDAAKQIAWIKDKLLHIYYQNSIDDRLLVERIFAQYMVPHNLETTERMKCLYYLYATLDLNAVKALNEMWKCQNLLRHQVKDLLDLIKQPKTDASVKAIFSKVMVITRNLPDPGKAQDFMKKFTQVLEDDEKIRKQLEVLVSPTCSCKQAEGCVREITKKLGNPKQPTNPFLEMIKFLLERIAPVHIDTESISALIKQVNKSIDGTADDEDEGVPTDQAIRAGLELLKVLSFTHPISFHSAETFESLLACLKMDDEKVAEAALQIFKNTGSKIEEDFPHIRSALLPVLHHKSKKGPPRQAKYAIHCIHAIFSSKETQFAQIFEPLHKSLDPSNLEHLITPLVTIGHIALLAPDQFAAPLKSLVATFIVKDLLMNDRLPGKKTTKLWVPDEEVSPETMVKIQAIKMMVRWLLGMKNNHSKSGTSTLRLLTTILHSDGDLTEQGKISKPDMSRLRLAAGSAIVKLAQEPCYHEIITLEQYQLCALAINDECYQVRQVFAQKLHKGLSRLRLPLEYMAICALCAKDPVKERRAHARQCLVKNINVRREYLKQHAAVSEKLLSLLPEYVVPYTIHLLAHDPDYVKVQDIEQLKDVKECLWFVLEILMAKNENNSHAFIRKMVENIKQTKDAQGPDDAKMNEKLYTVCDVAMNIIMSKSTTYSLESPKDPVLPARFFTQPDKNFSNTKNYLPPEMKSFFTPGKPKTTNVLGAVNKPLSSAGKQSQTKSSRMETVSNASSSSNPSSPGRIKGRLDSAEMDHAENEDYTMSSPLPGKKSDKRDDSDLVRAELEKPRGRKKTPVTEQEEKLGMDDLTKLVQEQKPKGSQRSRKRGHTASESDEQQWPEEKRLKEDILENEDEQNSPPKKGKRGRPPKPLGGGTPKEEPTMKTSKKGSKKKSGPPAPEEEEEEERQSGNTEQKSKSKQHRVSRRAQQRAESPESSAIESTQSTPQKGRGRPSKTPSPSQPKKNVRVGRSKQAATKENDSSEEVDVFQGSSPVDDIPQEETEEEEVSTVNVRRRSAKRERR", "assay": "pull-down; Flag-Pds5b variants affinity-purified from Nek2a- and cyclin A2-free prometaphase cells, incubated on the beads with recombinant Nek2a and/or Cdk1/2-cyclin A2 and ATP, washed, then incubated with recombinant Wapl (2 µl) and sororin (0.3 µg) in 15 µl cleavage buffer without ATP, 20 min at 37 °C; immunoblotting", "settings": "both partners purified", "data": [{"binder": "B1", "values": [{"measurement": "binding result", "value": "binds"}]}]}
